Results reported in paper doi:10.1101/2025.03.18.643923, “Widely used CaMKII regulatory segment mutations cause tight actinin binding and dendritic spine enlargement in unstimulated neurons” (bioRxiv, 2025).

The binders below were run against T1, Human α-actinin-2 EF3-4 (positions 827-894) (human, UniProt P35609 827-894) (assay: ITC; MicroCal PEAQ, 25 °C, 25 mM HEPES pH 7.5, 150 mM NaCl; syringe 500 μM CaMKIIα peptide, cell 50 μM EF3-4; single site binding model). Details: both partners purified.
T1 construct: α-actinin-2, human, third and fourth EF hands, positions 827-894; also called α-actinin-2 EF hands 3-4; source: E. coli Rosetta pLysS, purified (Ni-NTA, Glutathione Sepharose, Tev cleavage, Superdex 75); not shown: His, N-terminal, cleaved; GST, N-terminal, cleaved
T1 sequence (P35609 827-894): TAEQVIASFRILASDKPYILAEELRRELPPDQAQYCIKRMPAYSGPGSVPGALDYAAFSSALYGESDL

Row | Binder | Kd [µM]
1 | NARRKLKGAILAAMLATRNFSG (peptide, UniProt P11275 294-315, looked up, Probably a synthetic peptide; also called AA isolated regulatory segment) [CaMKIIα 294-315 peptide T305A/T306A] | 14.7 ± 1.2
2 | LKKFNARRKLKGAILTTMLA (peptide, UniProt P11275 290-309, looked up, CaMKIIα regulatory segment, residues 290-309; Probably a synthetic peptide; also called WT CaMKIIα 290-309; N-terminally shifted regulatory segment peptide (WT)) [CaMKIIα 290-309 peptide WT] | 3.46 ± 0.08

More lines, now with the values ahead:

Row | Kd [µM] | Binder
3 | 19.8 ± 1.9 | NARRKLKGAILTAMLATRNFSG (peptide, UniProt P11275 294-315, looked up, Probably a synthetic peptide; also called T306A regulatory segment) [CaMKIIα 294-315 peptide T306A]
4 | 19.4 ± 0.7 | NARRKLKGAILATMLATRNFSG (peptide, UniProt P11275 294-315, looked up, Probably a synthetic peptide; also called T305A regulatory segment) [CaMKIIα 294-315 peptide T305A]
5 | 0.146 ± 0.012 | LKKFNARRKLKGAILAAMLA (peptide, UniProt P11275 290-309, looked up, CaMKIIα regulatory segment, residues 290-309; Probably a synthetic peptide; also called AA CaMKIIα 290-309; N-terminally shifted regulatory segment peptide (AA)) [CaMKIIα 290-309 peptide AA (T305A/T306A)]
